Test [1] concerns the target T1, human TNFα in complex with compound (1) (human, UniProt P01375 77-233).
T1 construct: also called human TNFα +compound (1); TNFα-compound (1) complex
Kind of test: SPR (BIAcore), against apo human TNFα.

In test [2] the target is T2, human TNFα in complex with compound (2) (human, UniProt P01375 77-233).
T2 construct: also called human TNFα +compound (2); compound-distorted human TNFα
Kind of test: SPR (BIAcore), against apo human TNFα.

Some results are limits rather than exact numbers.

T1 sequence (P01375 77-233 limits assumed, one chain of several): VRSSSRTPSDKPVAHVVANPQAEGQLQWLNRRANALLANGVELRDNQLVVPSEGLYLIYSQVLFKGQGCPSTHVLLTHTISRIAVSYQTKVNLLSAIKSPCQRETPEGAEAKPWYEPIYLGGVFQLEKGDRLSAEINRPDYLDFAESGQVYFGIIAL
T2 sequence (P01375 77-233 limits assumed, one chain of several): as above

B1: CA185_01979 mouse IgG1 (antibody, V domains shown)
VH: EVHLVESGPGLVKPSQSLSLTCSVTGYSITNSYWDWIRKFPGNKMEWMGYINYSGSTGYNPSLKSRISISRDTSNNQFFLQLNSITTEDTATYYCARGTYGYNAYHFDYWGRGVMVTVSS
VL: DIQMTQSPASLSASLEEIVTITCQASQDIGNWLSWYQQKPGKSPHLLIYGTTSLADGVPSRFSGSRSGTQYSLKISGLQVADIGIYVCLQAYSTPFTFGSGTKLEIKR
notes: mIgG1 heavy chain and kappa light chain; also called CA185_01979.0; VR0001842
As for B1, the “selective binding for compound-distorted over apo human TNFα (log)” value in test [1] and in test [2] was greater than 2 log throughout.

These data come from patent US20220074947A1 (UCB, published 2022).
